Patent US20240360194A1, “New Peptides as Potent and Selective GIP Receptor Agonists” (Sanofi, priority 2021, published 2024)
Numbered stars: 1 amine (or outer) side, 2 acyl side, 3 side chain; on linkers, the order of the positions; unused ones are H or OH. Square brackets hold non-standard residues; d marks the D form. Side chains are listed from the residue outwards. Ends that are not written are not given here. * marks the point of attachment. C18 diacid = O=C(O)CCCCCCCCCCCCCCCCC(=O)*; γGlu = O=C(O)[C@H](CCC(=O)[*:2])N[*:1]; Iva = CC[C@](C)(N)C(=O)O; AEEA = NCCOCCOCC(=O)O; Aib = CC(C)(N)C(=O)O

T1: human GIP receptor (human, UniProt P48546 22-466)
T1 sequence (looked up): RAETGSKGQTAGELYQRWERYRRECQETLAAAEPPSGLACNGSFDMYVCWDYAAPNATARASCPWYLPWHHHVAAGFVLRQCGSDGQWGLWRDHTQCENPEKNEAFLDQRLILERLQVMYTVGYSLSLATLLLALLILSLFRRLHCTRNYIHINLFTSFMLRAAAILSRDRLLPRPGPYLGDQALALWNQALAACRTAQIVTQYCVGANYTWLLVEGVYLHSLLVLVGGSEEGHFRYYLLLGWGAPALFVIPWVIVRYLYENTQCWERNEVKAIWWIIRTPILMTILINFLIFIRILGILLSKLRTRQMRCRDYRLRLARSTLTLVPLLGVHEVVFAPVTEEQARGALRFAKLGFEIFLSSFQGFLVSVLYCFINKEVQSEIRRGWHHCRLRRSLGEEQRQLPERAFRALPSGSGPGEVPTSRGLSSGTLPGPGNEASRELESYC


Experiments:
[1] = target: T1, human GIP receptor; assay: cell-based or functional assay
[2] = target: T2, human GLP-1 receptor (human, UniProt P43220 24-463); assay: cell-based or functional assay
[3] = target: T1, human GIP receptor; assay: cell-based or functional assay; remark: listed apart in the source
[4] = target: T2, human GLP-1 receptor; assay: displacement of [125I]GLP-1 from HEK-293 membranes expressing hGLP-1R (SPA beads)

Binder	EC50 hGIPR 0% HSA (cAMP, HEK-293) [1] [nM]	EC50 hGIPR 0.1% BSA (cAMP, HEK-293) [1] [nM]	EC50 hGLP-1R 0.1% BSA (cAMP, HEK-293) [2] [nM]	hGIPR EC50 (cAMP, human adipocytes) [3] [nM]	hGIPR Emax (cAMP, human adipocytes) [3] [%]	IC50 [4] [nM]
Y[Aib]EGTFISDLSI[Aib]K([AEEA-AEEA-γGlu-C18 diacid])DR[Aib]HQ[Aib]EFIEWLLAQRPSSGAPPPS-NH2 (N-terminus assumed; SMILES CC[C@H](C)[C@H](NC(=O)[C@H](Cc1ccccc1)NC(=O)[C@H](CCC(=O)O)NC(=O)C(C)(C)NC(=O)[C@H](CCC(N)=O)NC(=O)[C@H](Cc1c[nH]cn1)NC(=O)C(C)(C)NC(=O)[C@H](CCCNC(=N)N)NC(=O)[C@H](CC(=O)O)NC(=O)[C@H](CCCCNC(=O)COCCOCCNC(=O)COCCOCCNC(=O)CC[C@H](NC(=O)CCCCCCCCCCCCCCCCC(=O)O)C(=O)O)NC(=O)C(C)(C)NC(=O)[C@@H](NC(=O)[C@H](CO)NC(=O)[C@H](CC(C)C)NC(=O)[C@H](CC(=O)O)NC(=O)[C@H](CO)NC(=O)[C@@H](NC(=O)[C@H](Cc1ccccc1)NC(=O)[C@@H](NC(=O)CNC(=O)[C@H](CCC(=O)O)NC(=O)C(C)(C)NC(=O)[C@@H](N)Cc1ccc(O)cc1)[C@@H](C)O)[C@@H](C)CC)[C@@H](C)CC)C(=O)N[C@@H](CCC(=O)O)C(=O)N[C@@H](Cc1c[nH]c2ccccc12)C(=O)N[C@@H](CC(C)C)C(=O)N[C@@H](CC(C)C)C(=O)N[C@@H](C)C(=O)N[C@@H](CCC(N)=O)C(=O)N[C@@H](CCCNC(=N)N)C(=O)N1CCC[C@H]1C(=O)N[C@@H](CO)C(=O)N[C@@H](CO)C(=O)NCC(=O)N[C@@H](C)C(=O)N1CCC[C@H]1C(=O)N1CCC[C@H]1C(=O)N1CCC[C@H]1C(=O)N[C@@H](CO)C(N)=O, Synthetic peptide, 39 residues) [SEQ ID NO: 22]	0.00016	0.00666	> 10	0.6	98	221
H-Y[Aib]EGT[Iva]ISDLSI[Aib]K([AEEA-AEEA-γGlu-C18 diacid])DRIHQ[Aib]EFIEWLLAQGPSSGAPPPS-NH2 (Synthetic peptide, 39 residues) [SEQ ID NO: 23]	0.00027	0.0177	> 10	0.2	91	259
Y[Aib]EGTFISDLSI[Aib]K([AEEA-AEEA-γGlu-C18 diacid])DRIHQ[Aib]EFIEWLLAQEPSSGAPPPS-NH2 (N-terminus assumed; SMILES CC[C@H](C)[C@H](NC(=O)[C@H](CCCNC(=N)N)NC(=O)[C@H](CC(=O)O)NC(=O)[C@H](CCCCNC(=O)COCCOCCNC(=O)COCCOCCNC(=O)CC[C@H](NC(=O)CCCCCCCCCCCCCCCCC(=O)O)C(=O)O)NC(=O)C(C)(C)NC(=O)[C@@H](NC(=O)[C@H](CO)NC(=O)[C@H](CC(C)C)NC(=O)[C@H](CC(=O)O)NC(=O)[C@H](CO)NC(=O)[C@@H](NC(=O)[C@H](Cc1ccccc1)NC(=O)[C@@H](NC(=O)CNC(=O)[C@H](CCC(=O)O)NC(=O)C(C)(C)NC(=O)[C@@H](N)Cc1ccc(O)cc1)[C@@H](C)O)[C@@H](C)CC)[C@@H](C)CC)C(=O)N[C@@H](Cc1c[nH]cn1)C(=O)N[C@@H](CCC(N)=O)C(=O)NC(C)(C)C(=O)N[C@@H](CCC(=O)O)C(=O)N[C@@H](Cc1ccccc1)C(=O)N[C@H](C(=O)N[C@@H](CCC(=O)O)C(=O)N[C@@H](Cc1c[nH]c2ccccc12)C(=O)N[C@@H](CC(C)C)C(=O)N[C@@H](CC(C)C)C(=O)N[C@@H](C)C(=O)N[C@@H](CCC(N)=O)C(=O)N[C@@H](CCC(=O)O)C(=O)N1CCC[C@H]1C(=O)N[C@@H](CO)C(=O)N[C@@H](CO)C(=O)NCC(=O)N[C@@H](C)C(=O)N1CCC[C@H]1C(=O)N1CCC[C@H]1C(=O)N1CCC[C@H]1C(=O)N[C@@H](CO)C(N)=O)[C@@H](C)CC, Synthetic peptide, 39 residues (Glu at 30)) [SEQ ID NO: 29]	0.00015	0.0152	> 10	5.3	119	287
